Test results reported in US20030163846A1, “Process for the genetic modification of a plant” (priority 2000, published 2003).

What was measured:
[1] = 14C-saccharose uptake tests in yeast expressing SUT4 (SUSY7/ura3); type: cell-based; settings: for Km: Michaelis-Menten nonlinear regression
Method: (§1) The yeast strain SUSY7/ura3 is a modified version of SUSY7 (Riesmeier et al., EMBO J. (1992) 11, 4705-4713), which contains a deletion of a portion of the URA3 gene and, as a result, permits selection for uracil auxotrophy. Media that contained the 1.7 g/L yeast nitrogen base without amino acids (Difco), 2% saccharose, 20 mg/L tryptophane, and 1.5% agarose, pH 5.0, were used to analyze yeast growth on a saccharose medium.
(§2) For the saccharose uptake tests, yeast was cultivated in a liquid minimal medium containing glucose, up to an OD623 of approximately 0.8. Cells were collected by means of centrifugation, washed in 25 mM sodium phosphate buffer (pH 5.5), and suspended in the same buffer at an OD623 of 20. The uptake tests were initiated by adding glucose ending at a final concentration of 10 mM to the yeast cells one minute before adding ^14C-saccharose. Following incubation at 30° C. while stirring, cells were collected by means of vacuum filtration on fiberglass filters (1-5 minutes), washed twice with 4 mL 10 mM saccharose (at the freezing point), and the radioactivity was determined using a liquid scintillation counter. […] A significant difference compared with the vector controls is apparent.
Data for the kinetic analysis were obtained for SUT4 from a nonlinear regression of the uptake measurements using the Michaelis-Menten equation. Km was represented as an average of eight determinations using three independent transformants±standard deviation. The KM value for saccharose that was determined was 11.6±0.6 mM (at a pH of 5.5) and 5.9±0.8 mM (at a pH of 4.0) for SUT4 from arabidopsis. For SUT4 from Solanum tuberosum the KM value was 6.0±1.2 mM (pH 4.0) (see FIG. 5B).

[2] = yeast growth on a saccharose medium (SUSY7/ura3); type: cell-based; settings: 2% saccharose medium, pH 5.0
Method: as §1, §2

B1: AtSUT4: saccharose transporter SUT4 from Arabidopsis thaliana, amino acid sequence SEQ ID no. 5 (protein, listed as Arabidopsis thaliana)
chain: MATSDQDRRHRATRNRPPIPRPSNSSSRPVVPPPRSKVSKRVLLRVASVACGIQFGWALQLSLLTPYVQELGIPHAWASVIWLCGPLSGLFVQPLVGHSSDRCTSKYGRRRPFIVAGAVAISISVMVIGHAADIGWAFGDREGKIKPRAIVAFVLGFWILDVANNMTQGPCRALLADLTENDNRRTRVANGYFSLFMAVGNVLGYATGSYNGWYKIFTFTKTVACNVECANLKSAFYIDVVFIAITTILSVSAAHEVPLASLTSEAHGQTSGTDEAFLSEIFGTFRYFPGNVWIILLVTALTWIGWFPFILFDTDWMGREIYGGEPNIGTSYSAGVSMGALGLMLNSVFLGITSVLMEKLCRKWGAGFVWGISNILMAICFLGMIITSFVASHLGYIGHEQPPASIVFAAVLIFTILGIPLAITYSVPYALISIRIESLGLGQGLSLGVLNLAIVIPQVIVSVGSGPWDQLFGGGNSPALAVGAATGFIGGIVAILALPRTRIQKPIPLP
- functional saccharose transporter (uptake of 14C-saccharose vs vector controls) ([1]; FIG. 5A): functional saccharose transporters
- Km ([1]; pH 4.0, average ± standard deviation): 5.9 ± 0.8 mM
- Km ([1]; pH of 5.5, average of eight determinations ± standard deviation): 11.6 ± 0.6 mM
- yeast growth on saccharose [2]: permitted yeast to grow on saccharose
